This is an account of results in article PMC5355875, “Crystal structure of a raw-starch-degrading bacterial α-amylase belonging to subfamily 37 of the glycoside hydrolase family GH13” (Scientific Reports, 2017).

The test system of data set [1] is T1, OC[C@H]1O[C@@H]2O[C@H]3[C@H](O)[C@@H](O)[C@@H](O[C@H]4[C@H](O)[C@@H](O)[C@@H](O[C@H]5[C@H](O)[C@@H](O)[C@@H](O[C@H]6[C@H](O)[C@@H](O)[C@@H](O[C@H]7[C@H](O)[C@@H](O)[C@@H](O[C@H]8[C@H](O)[C@@H](O)[C@@H](O[C@H]9[C@H](O)[C@@H](O)[C@@H](O[C@H]1[C@H](O)[C@H]2O)O[C@@H]9CO)O[C@@H]8CO)O[C@@H]7CO)O[C@@H]6CO)O[C@@H]5CO)O[C@@H]4CO)O[C@@H]3CO.
T1 construct: SBD-truncated catalytic domain, residues 1-496, N-terminal 6xHis (TEV site)
Kind of data set: reducing sugar assay (copper-bicinchoninate), Michaelis-Menten fit. It is filed as biochemical, uncultured bacterium. The note with it: 40 °C, pH 6.5, 20 mM HEPES, 150 mM NaCl, 10 mM CaCl2. The text has this: (§1) reducing sugar assay (copper-bicinchoninate), Michaelis-Menten fit on AmyPΔSBD

The target of data set [2] is T2, AmyP (uncultured bacterium, UniProt D9MZ14, E221Q).
T2 construct: gene Amy-1E; full-length residues 1-639 crystallised, 6xHis tag cut by TEV, E. coli BL21(DE3); only residues 1-496 (AmyPΔSBD) seen in crystals, SBD partly degraded
Kind of data set: X-ray crystal structure, […] Å. It is filed as binding. The note with it: co-crystallised with γ-CD, pH 6.0; active site, subsites -1, -2 and -3.

Data set [3] concerns the target T3, AmyP (uncultured bacterium, UniProt D9MZ14).
T3 construct: gene Amy-1E; full-length residues 1-639 crystallised, 6xHis tag cut by TEV, E. coli BL21(DE3); only residues 1-496 (AmyPΔSBD) seen in crystals, SBD partly degraded
Kind of data set: X-ray crystal structure, […] Å. It is filed as binding. The note with it: co-crystallised with β-CD, pH 8.5; active site, subsites -2 and -3.

Substrate in data set [4]: OC[C@H]1O[C@@H]2O[C@H]3[C@H](O)[C@@H](O)[C@@H](O[C@H]4[C@H](O)[C@@H](O)[C@@H](O[C@H]5[C@H](O)[C@@H](O)[C@@H](O[C@H]6[C@H](O)[C@@H](O)[C@@H](O[C@H]7[C@H](O)[C@@H](O)[C@@H](O[C@H]8[C@H](O)[C@@H](O)[C@@H](O[C@H]9[C@H](O)[C@@H](O)[C@@H](O[C@H]1[C@H](O)[C@H]2O)O[C@@H]9CO)O[C@@H]8CO)O[C@@H]7CO)O[C@@H]6CO)O[C@@H]5CO)O[C@@H]4CO)O[C@@H]3CO
Kind of data set: reducing sugar assay (copper-bicinchoninate), Michaelis-Menten fit. It is filed as biochemical, uncultured bacterium. The note with it: 40 °C, pH 6.5, 20 mM HEPES, 150 mM NaCl, 10 mM CaCl2.
Description: as §1

In general, Km refers to the concentration of substrate that gives half-maximal velocity. As a reminder, the kcat is the number of substrate molecules converted per active site and unit of time at saturation. In general, kcat/Km refers to the turnover number divided by the Michaelis constant.

Residue numbers refer to the chain shown, from its start. Names and notes keep the numbering of the source.

AmyPΔSBD (uncultured bacterium; K131A): in data set [1], the Km was found to be 1290 ± 130 µM, the kcat amounted to 7.47 ± 0.004 s⁻¹ and the kcat/Km worked out at 5800 M⁻¹ s⁻¹.

As for `OC[C@H]1O[C@H](O[C@H]2[C@H](O)[C@@H](O)[C@@H](O[C@H]3[C@H](O)[C@@H](O)C(O)O[C@@H]3CO)O[C@@H]2CO)[C@H](O)[C@@H](O)[C@@H]1O` (some centres unmarked) [maltotriose], the “X-ray crystal structure, 2.55 Å” value at AmyP [2] is listed as “electron density representing a maltotriose molecule bound to the active site”.

As to `OC[C@H]1O[C@H](O[C@H]2[C@H](O)[C@@H](O)C(O)O[C@@H]2CO)[C@H](O)[C@@H](O)[C@@H]1O` (some centres unmarked) [maltose], the “X-ray crystal structure, 1.95 Å” value on AmyP [3] is “electron density representing a maltose molecule at subsites -2 and -3”.

Turning to AmyPΔSBD (uncultured bacterium; N148A), in data set [1], the Km turned out to be 200 ± 30 µM, the kcat came out at 22.59 ± 0.007 s⁻¹ and the kcat/Km came out at 113000 M⁻¹ s⁻¹.

B1: AmyPΔSBD (uncultured bacterium) (protein)
chain: MCDSALTAQANDLRIYQVMVESFVNGDDAIGHGTGYGTSHHKGDLQGIIDSLDYIESLGMNAIWLTPIFDSIPVEGQDHWADRLDATGYFTSNYFAVDPRFGTMEQAKELVEKAHEKGLYVFFDGVFGHHKDNVVPSPEGRLPVGENNPVSYPESLAFYQEVATFWIEELKIDGWRLDQAYQVPTEAWTAIRASVDEASKSVTYVNSEGEAVNPLGYMVAEIWNNENYIKETGYGAEGEPALCSAFDFPVRYRVVETFAANENGIGNKGGKWLDEGMNLHRLYPSHAQPNLMLGNHDLVRFGDLLQRGNIASPEQAEYWERHKAALSFQAAYSGPITLYYGEEIGDELEGYAQKVEQDCAVQGLCDDHVARTSANIDGLTVNLNEKQRDLKQYVSQLMTLRAAHPALSRGERTNIVANETVYIDHKQADDDALIYMVSTTADQDTVELKASDIASDGQLVDLLTGKVHSAINGEYQISLAPFEAKFLLIETPSASG
notes: SBD-truncated catalytic domain, residues 1-496, N-terminal 6xHis (TEV site)
Take B1: in data set [4], the Km was determined as 120 ± 5 µM, the kcat stood at 39.58 ± 0.004 s⁻¹ and the kcat/Km came out at 323000 M⁻¹ s⁻¹.

B2: AmyPΔSBD (uncultured bacterium; N148Y) (protein)
chain: B1 chain with N148Y
notes: as for B1
As for B2, in data set [4], the Km came to 100 ± 9 µM, the kcat is 26.11 ± 0.01 s⁻¹ and the kcat/Km stood at 274000 M⁻¹ s⁻¹.

B3: AmyPΔSBD (uncultured bacterium; Y351A) (protein)
chain: B1 chain with Y351A
notes: as for B1
B3: in data set [4], the Km came to 2110 ± 90 µM, the kcat was 25.02 ± 0.006 s⁻¹ and the kcat/Km was 11900 M⁻¹ s⁻¹.
